B1: S-M checkpoint control protein rad4 (Schizosaccharomyces pombe (strain ATCC 38366 / 972)), P32372 (parent)
chain: MGSSKPLKGFVICCTSIDLKQRTEISTKATKLGAAYRSDFTKDVTHLIAGDFDTPKYKFAAKSRPDIKIMSSEWIPVLYESWVQGEDLDDGLLVDKHFLPTLFKCRVCLTNIGQPERSRIENYVLKHGGTFCPDLTRDVTHLIAGTSSGRKYEYALKWKINVVCVEWLWQSIQRNAVLEPQYFQLDMPAEKIGLGAYVRLDPNTTEAKSYSENQKISKNKEKSGQSLAALAEEADLEPVIMKRGKKRDRSILWEELNNGKFEFSSRSEENSVLLDDFTPETVQPLEENELDTELNIENEAKLFKNLTFYLYEFPNTKVSRLHKCLSDNGGQISEFLSSTIDFVVIPHYFPVDELPIFSFPTVNEWWIERCLYYKKIFGIDEHALAKPFFRPSLVPYFNGLSIHLTGFKGEELSHLKKALTILGAVVHEFLGVQRSILLVNTNEPFSMKTRFKIQHATEWNVRVVGVAWLWNIIQSGKFIDQVSPWAIDKKENQEIKKFTNQNNMVFPTSDRDTRLQNSLAQQPIGHSTPHNSPSLLSVKKRQNNHIRSNTLIQLNSNSKDSTIFPRRSVTVPGDKIDTVWKSSVTKPETPTSPQEHVSYIDPDAQREKHKLYAQLTSNVDAIPPANDLQNQENGLLLITESHRKLRRR
partner: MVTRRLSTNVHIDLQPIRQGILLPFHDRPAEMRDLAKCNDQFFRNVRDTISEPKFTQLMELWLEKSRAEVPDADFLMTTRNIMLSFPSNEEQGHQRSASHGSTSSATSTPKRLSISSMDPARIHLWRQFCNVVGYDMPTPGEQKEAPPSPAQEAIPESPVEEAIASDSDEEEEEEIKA

Variants of: B1
Conditions: with yq61_schpo yq61, O94733

Variant | effect of a mutation on the interaction
S171N | decreasing interaction
